Data published in paper PMC12283967 (Nature Communications, 2025).
Substitutions are numbered along the chain they refer to. Names and notes keep the numbering of the source. Like-named read-outs stand apart in the source and are kept apart here.

B1: Sumo-His-tagged PFKM WT (enzyme, human, UniProt P08237 1-780, looked up)
chain: MTHEEHHAAKTLGIGKAIAVLTSGGDAQGMNAAVRAVVRVGIFTGARVFFVHEGYQGLVDGGDHIKEATWESVSMMLQLGGTVIGSARCKDFREREGRLRAAYNLVKRGITNLCVIGGDGSLTGADTFRSEWSDLLSDLQKAGKITDEEATKSSYLNIVGLVGSIDNDFCGTDMTIGTDSALHRIMEIVDAITTTAQSHQRTFVLEVMGRHCGYLALVTSLSCGADWVFIPECPPDDDWEEHLCRRLSETRTRGSRLNIIIVAEGAIDKNGKPITSEDIKNLVVKRLGYDTRVTVLGHVQRGGTPSAFDRILGSRMGVEAVMALLEGTPDTPACVVSLSGNQAVRLPLMECVQVTKDVTKAMDEKKFDEALKLRGRSFMNNWEVYKLLAHVRPPVSKSGSHTVAVMNVGAPAAGMNAAVRSTVRIGLIQGNRVLVVHDGFEGLAKGQIEEAGWSYVGGWTGQGGSKLGTKRTLPKKSFEQISANITKFNIQGLVIIGGFEAYTGGLELMEGRKQFDELCIPFVVIPATVSNNVPGSDFSVGADTALNTICTTCDRIKQSAAGTKRRVFIIETMGGYCGYLATMAGLAAGADAAYIFEEPFTIRDLQANVEHLVQKMKTTVKRGLVLRNEKCNENYTTDFIFNLYSEEGKGIFDSRKNVLGHMQQGGSPTPFDRNFATKMGAKAMNWMSGKIKESYRNGRIFANTPDSGCVLGMRKRALVFQPVAELKDQTDFEHRIPKEQWWLKLRPILKILAKYEIDLDTSDHAHLEHITRKRSGEAAV
B2: Sumo-His-tagged PFKM F639L (enzyme, human, UniProt P08237 1-780, looked up)
chain: B1 chain with F639L

How the values were obtained:
SEC [1] = target: the molecule itself; assay: SEC
SEC [2] = target: the molecule itself; assay: SEC; remark: listed apart in the source

Protein | stoichiometry N (SEC [1]) | stoichiometry N (SEC [2])
B1 | 2 | 4
B2 |  | 2
